Measured values as given in patent US20090288225A1, “Novel Aromatic Acyltransferase Genes” (Aomori Prefecture, priority 2006, published 2009).

B1: 3′AT protein: acyltransferase purified from butterfly pea petals, transfers aromatic acyl group to glucosyl group at position 3′ of anthocyanin (after Mono Q) (protein)
chain: GTIVEFLPGFDGPLPFVLETGYVGVGEGEDVQVFYYFVESENNPNEDPLMLWLTGGPGCSAFSGLALEIGPLIFKREEYNGGLPNLILRPHSWTKVSSIIFVDLPVSTGFTYARTDAAAQRSDWTLVHHAHEFLRKWLIDHPKFLQNELYIGGDSYSGIPIPVIVQEISQENEKGIQPWINLQGYILGNAITTRREKGYSIPFAHGMALISDELYESLRKNCKGEYLNVDPENVLCSRDIDSYSKATSRISFAHILERTCNSGDIKTSLRRSTIQRHHTKKFLNTNLKLPPLTCRTYANFQCGLWANDDNVRSALHIHKGSIGEWHRCSIRLPFTSDIPNSFEYHVNLSRKGYYRSLIYSGDHDMMVPFLGTQAWIRSLNYSIVDDWRPWNTNGQVAGYTRTYSNRMTYATIKGGGHTAPEFKPEECFAMYSRWISKRPLYENNTMSSYTNLASIL
B2: LeGT13-30: lobelia 1-O-acyl-β-D-glucose synthase, 486 amino acid residues, SEQ ID NO: 18 (protein)
chain: MGSLQGTTTVENLTHVFLVSFPGQGHVNPLLRLGKILASKGLLVTFSAPEMVGEIIKGANKYISDDELTPIGDGMIRFEFFSDSLGNTKEDNALRGNMDLYMPQLATFAKKSLSDILVKHQHHGRPVACLINNPFIPWISELAEEFNIPSAVLWVQSCASFSAYYHYHHNLVPFPTENEPERDVQLPSMPLLKYDEIPGFLLPSSPYGFLRRAILGQFKLLSKPICILVESFQELEDDCINYLSTLCPIKPIGPLFINPNVKTGSSIRGDFMKVEDCIDWLNTRADSSVVYISFGSIVYVKQEQITEIARGLADSGLSFLWAFKQPGVDMGLKPPSLPDGFLEEVKGRGKVVEWCSQEAVLGHPAVSCFMSHCGWNSTMEALSSGVPVAAFPIWGDQVTDAKFLVDEFKVGIRMCRGEADINKKVVPREEIARCLLAATSGPKAEELRRNALKWKKAAADSVGAGGSSDRNLEEFVGSIKKGVIGH
modifications: Lobelia erinus cv.Riviera Midnight Blue; Amino acid sequence of UDP-glucose hydroxycinnamic acid 1-O-glucosyltransferase

Columns and labels:
[1] = Acyltransferase activity of purified 3′AT, substrates preternatin C5 and 1-O-p-coumaroyl-β-D-glucose; assay type: biochemical, butterfly pea (Clitoria ternatea); conditions: 3′AT activity
Procedure: A reaction solution (20 μl) containing 100 mM phosphate buffer (pH 6.5), 0.4 mM anthocyanin (4 μl), 0.5 mM 1-O-acyl-β-D-glucose (4 μl) and an enzyme solution (8 μl) was reacted at 30° C. The reaction was terminated by adding 4 μl of 1M aqueous hydrochloric acid solution. After addition of 24 μl of 5% acetonitrile containing 0.05 M TFA, the reaction solution was filtered with Millex-LH filter (Millipore) and then analyzed by HPLC by feeding a 10 μl aliquot.
HPLC analysis of anthocyanin acyltransferase reaction products were performed with Develosil ODS-UG-5 column (3.0 i.d.×250 mm; Nomura Chemical) at a column temperature of 35° C. Against an initial solvent that was 0.05 M trifluoroacetate (TFA)-containing 5% acetonitrile (MeCN) aqueous solution, 0.05 M TFA-containing 40% MeCN was added with a linear concentration gradient from 14 to 86% (20 min) and the reaction products were eluted at a flow rate of 0.5 ml/min. The reaction products were detected with PDA and their molecular weights were confirmed by LC-MS/MS. […]

[2] = UDP-glucose:hydroxycinnamate 1-O-glucosyltransferase activity of recombinant proteins from E. coli; assay type: biochemical; conditions: against all four types of hydroxycinnamic acid used
Procedure: The transformed E. coli was shaking-cultured overnight in 3 ml of LB medium containing 50 μg/ml kanamycin and 34 μg/ml chloramphenicol. This culture broth (500 μl) was inoculated into LB medium (50 ml) and shaking-cultured until absorbance at 600 nm reached 0.4. Then, isopropyl-β-D-thiogalactoside (IPTG) was added to give a final concentration of 0.4 mM. The cells were shaking-cultured at 25° C. for 16 hr and then harvested by refrigerated centrifugation (8000 rpm, 4° C., 20 min). CtGT11-4 protein was partially purified from the cells using Ni-NTA mini-column according to the method recommended by the manufacturer. […]
For measuring enzyme activity, a 30 μl reaction solution containing 100 mM potassium phosphate buffer (pH 7.4), 30 pmole of UDP-glucose, 30 pmole of hydroxycinnamic acid and 15 μl of recombinant protein solution was reacted at 30° C. […] The enzyme reaction products were analyzed by reversed-phase high performance liquid chromatography (Shiseido NanoSpace system) using Develosil C30-UG-5 (1.5 i.d.×250 mm). […] The eluted materials were detected with a PDA detector, and the resultant data were analyzed to thereby quantitatively determine 1-O-acyl-β-D-glucose. […]
LeGT13-20 and LeGT13-30 genes were expressed using pET30Ek/LIC System (Novagen). […] Resultant several clones were analyzed to confirm the nucleotide sequences thereof, and then transformed into E. coli BL21-CodonPlus(DE3)-RP. […]

Molecule	specific activity [1] [pkat/mg]	glucosyltransferase activity [2]
B1	1492.6	–
B2	–	glucosyltransferase activity was confirmed
